Laboratory results from publication PMC7948739 (The Journal of Biological Chemistry, 2020).

Key:
[1] = biological target: the molecule itself; assay: AUC; sedimentation velocity, DEC-205 ECD 0.2 mg ml^-1, TBS pH 8.0, 150 mM NaCl, 20 °C, 37,000 RPM
[2] = biological target: the molecule itself; assay: AUC; sedimentation velocity, DEC-205 ECD 0.2 mg ml^-1, BIS-TRIS buffer pH 6.0, 150 mM NaCl, 20 °C, 37,000 RPM
[3] = biological target: the molecule itself; assay: SEC-MALS; DEC-205 ECD, 50 ul at 1 mg ml^-1, Superdex 200 5/150, TBS (10 mM Tris-HCl pH 8.0, 150 mM NaCl)

B1: soluble DEC-205 ectodomain (ECD), residues 1-1664 (domain or fragment, human, UniProt O60449-1 28-1664, looked up)
chain: SGRAANDPFTIVHGNTGKCIKPVYGWIVADDCDETEDKLWKWVSQHRLFHLHSQKCLGLDITKSVNELRMFSCDSSAMLWWKCEHHSLYGAARYRLALKDGHGTAISNASDVWKKGGSEESLCDQPYHEIYTRDGNSYGRPCEFPFLIDGTWHHDCILDEDHSGPWCATTLNYEYDRKWGICLKPENGCEDNWEKNEQFGSCYQFNTQTALSWKEAYVSCQNQGADLLSINSAAELTYLKEKEGIAKIFWIGLNQLYSARGWEWSDHKPLNFLNWDPDRPSAPTIGGSSCARMDAESGLWQSFSCEAQLPYVCRKPLNNTVELTDVWTYSDTRCDAGWLPNNGFCYLLVNESNSWDKAHAKCKAFSSDLISIHSLADVEVVVTKLHNEDIKEEVWIGLKNINIPTLFQWSDGTEVTLTYWDENEPNVPYNKTPNCVSYLGELGQWKVQSCEEKLKYVCKRKGEKLNDASSDKMCPPDEGWKRHGETCYKIYEDEVPFGTNCNLTITSRFEQEYLNDLMKKYDKSLRKYFWTGLRDVDSCGEYNWATVGGRRRAVTFSNWNFLEPASPGGCVAMSTGKSVGKWEVKDCRSFKALSICKKMSGPLGPEEASPKPDDPCPEGWQSFPASLSCYKVFHAERIVRKRNWEEAERFCQALGAHLSSFSHVDEIKEFLHFLTDQFSGQHWLWIGLNKRSPDLQGSWQWSDRTPVSTIIMPNEFQQDYDIRDCAAVKVFHRPWRRGWHFYDDREFIYLRPFACDTKLEWVCQIPKGRTPKTPDWYNPDRAGIHGPPLIIEGSEYWFVADLHLNYEEAVLYCASNHSFLATITSFVGLKAIKNKIANISGDGQKWWIRISEWPIDDHFTYSRYPWHRFPVTFGEECLYMSAKTWLIDLGKPTDCSTKLPFICEKYNVSSLEKYSPDSAAKVQCSEQWIPFQNKCFLKIKPVSLTFSQASDTCHSYGGTLPSVLSQIEQDFITSLLPDMEATLWIGLRWTAYEKINKWTDNRELTYSNFHPLLVSGRLRIPENFFEEESRYHCALILNLQKSPFTGTWNFTSCSERHFVSLCQKYSEVKSRQTLQNASETVKYLNNLYKIIPKTLTWHSAKRECLKSNMQLVSITDPYQQAFLSVQALLHNSSLWIGLFSQDDELNFGWSDGKRLHFSRWAETNGQLEDCVVLDTDGFWKTVDCNDNQPGAICYYSGNETEKEVKPVDSVKCPSPVLNTPWIPFQNCCYNFIITKNRHMATTQDEVHTKCQKLNPKSHILSIRDEKENNFVLEQLLYFNYMASWVMLGITYRNKSLMWFDKTPLSYTHWRAGRPTIKNEKFLAGLSTDGFWDIQTFKVIEEAVYFHQHSILACKIEMVDYKEEYNTTLPQFMPYEDGIYSVIQKKVTWYEALNMCSQSGGHLASVHNQNGQLFLEDIVKRDGFPLWVGLSSHDGSESSFEWSDGSTFDYIPWKGQTSPGNCVLLDPKGTWKHEKCNSVKDGAICYKPTKSKKLSRLTYSSRCPAAKENGSRWIQYKGHCYKSDQALHSFSEAKKLCSKHDHSATIVSIKDEDENKFVSRLMRENNNITMRVWLGLSQHSVDQSWSWLDGSEVTFVKWENKSKSGVGRCSMLIASNETWKKVECEHGFGRVVCKVPLG
notes: signal peptide in the construct; Monomer at pH 6.0, tetramer at pH 8.0; In both reconstructions only R30 to E1383 (CysR to CTLD8) could be built; CTLD9 and CTLD10 are invisible; also called CD205; source: HEK293S, transient transfection, secreted, purified (FLAG resin, size exclusion)
B1 was tested, and the “stoichiometry N” value [1] was 6, the “stoichiometry N” value [2] was 2 and the “stoichiometry N” value [3] was 4.
